The text below walks through data of PMC2572221.

One may read the Kd as the equilibrium constant for the complex coming apart.

The target in test [1] is rat C3b (rat).
The target in test [2] is rat C3b (rat). In words: SPR; Biacore 3000; rat C3b (1000RU) covalently coupled to the chip through its internal thioester after deposition by a convertase on a nidus of human C3b (50RU); different concentrations of the sCrry proteins flowed over; KD from steady state analysis.

rCrry-Ig (Fc fusion) showed an IH50 of inhibition of AP-mediated haemolysis of guinea pig erythrocytes by rat serum, in terms of Crry molarity with rat C3b (rat) [1] of 168 nM.

The substance “soluble recombinant form of rat Crry containing the four N-terminal SCRs (domain or fragment)” returned a Kd in the test with rat C3b (rat) [2] of 5.1 µM.
